Changes are numbered by the printed parent chain.

In this test the target is Human 20.2 + 18mer. Kind of test: ELISA, well supernatant on coated peptides. On the technique in general: In an ELISA, binding on a coated surface is turned into a signal by an enzyme label.

B1: antibody in the supernatant of B cell culture well 170B8 (antibody, V domains shown)
VH: AVQLLESGGGLIQPGGSLRLSCAASGFTFSSYAMSWVRQAPGKGLEWVSAISGSGGSTFYADSVRGRFTISRDNSKNTLYLQMNSLRVEDTAVYYCAKEVMGPIFFDYWGQGTLVTVSS
VL: EIVLTQSPGTLSLSPGERATLSCRASQSIISSALAWYQQKPGQAPRLLIYGASSRATGIPDRFSGSGSGTDFTLTISRLEPEDFAVYHCQQYGSTPLTFGGGTKVEIK
B1: the ELISA reading is 1.7.

B2: antibody in the supernatant of B cell culture well 250F2 (antibody, V domains shown)
VH: QVQLVESGGDLVKPGGSLRLSCAASGFSFSGYYLSWIRQAPGKGLEWVSYISLSGSFIKYADSVKGRFTISRDNAKKTLHLQMNSLRAEDTAVYYCARRTGTTTVFDYWGQGTLVTVSS
VL: EVVMTQSPATLSVSPGERATLSCRASQSVNSNLAWYQQRPGQAPRLLIYGASTRVTGIPARFSGSGSGTEFTLTISSLQSEDFAVYYCQQYNNWPLTFGGGTKVEIK
For the molecule B2, the ELISA reading was 0.4.

B3: antibody in the supernatant of B cell culture well 283B2 (antibody, V domains shown)
VH: QVQLVESGGGLVKPGGSLRLSCAASGFTFNVYYMNWIRQAPGKGLEWVSYISTSSSAIYYADSVKGRFTISRDNAKNSLYLQMNSLRAEDTAVYYCARRTGSTTVFDYWGQGTLVTVSS
VL: B2 VL with V2I, M4L, V29I, S31N, R39K, V55A, R61K, D82N, N93K
In the case of B3, the ELISA reading is 0.5.
